# Measured values published in PMC3814348 (PLoS Pathogens, 2013).
# B1: EsxGMt EsxHMt-6XHis heterodimer (complex)
# chain 1: MSLLDAHIPQLVASQSAFAAKAGLMRHTIGQAEQAAMSAQAFHQGESSAAFQAAHARFVAAAAKVNTLLDVAQANLGEAAGTYVAADAAAASTYTGF
# chain 2: MSQIMYNYPAMLGHAGDMAGYAGTLQSLGAEIAVEQAALQSAWQGDTGITYQAWQAQWNQAMEDLVRAYHAMSSTHEANTMAMMARDTAEAAKWGG
# Target: Hrs, purified recombinant ( (human, mouse or zebrafish …, UniProt O14964 1-777))
# Assay: pull-down
# Conditions: both partners purified
binder,measurement,value
B1,Kd,5.4 µM
